# Patent US6692962
# Molecular target: wild type (51S) wheat eIF2α (alpha subunit of wheat eukaryotic initiation factor 2) (wheat)
# Assay: cell-based or functional assay
substance,measurement,value
"PKR (IPTG-inducible, expressed from recombinant vaccinia virus WR 68K) (from UniProt P19525 2-551) (enzyme)","phosphorylated peIF2α 51S, densitometric analyses of western blots (HeLa cells)",3.8 fold
